# Source: US20160333098A1 (published 2016)
# B1: chimeric R1 (cR1) (antibody, V domains shown)
# VH: EVKLVESGGGLVQPGGSLKLSCATSGFTFSDYYMYWVRQTPEKRLEWVAYITNYGGSTYYPDTVKGRFTISRDNAKNTLYLQMSRLRSEDTAMYFCARQSNYDYDGWFAYWGQGTTVTVSS
# VL: DIVMTQSHKFMSTSVGDRVSITCKASQEVGTAVAWYQQKPGQSPKLLIYWASTRHTGVPDRFTGSGSGTDFTLTISNVQSEDLADYFCQQYSNYPLTFGAGAKLELKR
# notes: R1 variable domains on human constant regions of the pdHL2 vector (cR1pdHL2); also called mouse-human chimeric mAb of R1; clones 709.2D2 and 710.2G2
# B2: mouse anti-IGF-1R antibody R1 (ML04R1) (antibody, V domains shown)
# VH: B1 VH
# VL: B1 VL
# notes: Used unlabeled or tagged with a fluorescent probe (PE); also called murine R1; clone C-11
# B3: humanized R1 (hR1) (antibody, V domains shown)
# VH: QVQLQESGGGVVQPGRSLRLSCSASGFTFSDYYMYWVRQAPGKGLEWVAYITNYGGSTYYPDTVKGRFTISRDNAKNTLFLQMDSLRPEDTGVYFCARQSNYDYDGWFAYWGQGTPVTVSS
# VL: DIQLTQSPSSLSASVGDRVTITCKASQEVGTAVAWYQQKPGKAPKLLIYWASTRHTGVPSRFSGSGSGTDFTFTISSLQPEDIATYFCQQYSNYPLTFGQGTKVEIKR
# notes: also called hR1 IgG; production clone 711.3C11
# Legend:
# [1] = biological target: EGP-1 expressed on cancer cell lines (MCF-7, DU-145, ME-180) (UniProt P09758); experiment: flow cytometry (FACScan), DU145 cells
# [2] = biological target: EGP-1 expressed on cancer cell lines (MCF-7, DU-145, ME-180) (UniProt P09758); experiment: flow cytometry (FACScan), MCF-7 cells
# [3] = biological target: EGP-1 expressed on cancer cell lines (MCF-7, DU-145, ME-180) (UniProt P09758); experiment: flow cytometry (FACScan), ME-180 cells
# [4] = biological target: IGF-1R expressed on cancer cell lines (MCF-7L, MCF-7, CaPan1, DU-145, ME-180, Hep G2, HT-29, LNCaP) (human) (UniProt P08069); experiment: 125I-IGF-1 binding to MCF-7L cells, 0 ng/mL antibody (reference)
# [5] = biological target: recombinant human IGF-1R (rhIGF-1R), immobilized on plates or polystyrene beads (human) (UniProt P08069); experiment: labeled antibody on rhIGF-1R-coated beads; competitor: unlabeled R1
# [6] = biological target: IGF-1R expressed on cancer cell lines (MCF-7L, MCF-7, CaPan1, DU-145, ME-180, Hep G2, HT-29, LNCaP) (human) (UniProt P08069); experiment: 125I-IGF-1 binding to MCF-7L cells in the presence of 10 ng/mL antibody
# [7] = biological target: recombinant human IGF-1R (rhIGF-1R), immobilized on plates or polystyrene beads (human) (UniProt P08069); experiment: labeled antibody on rhIGF-1R-coated beads; competitor: unlabeled MAB391
# [8] = biological target: IGF-1R expressed on cancer cell lines (MCF-7L, MCF-7, CaPan1, DU-145, ME-180, Hep G2, HT-29, LNCaP) (human) (UniProt P08069); experiment: 125I-IGF-1 binding to MCF-7L cells in the presence of 100 ng/mL antibody
# [9] = biological target: IGF-1R expressed on cancer cell lines (MCF-7L, MCF-7, CaPan1, DU-145, ME-180, Hep G2, HT-29, LNCaP) (human) (UniProt P08069); experiment: 125I-IGF-1 binding to MCF-7L cells in the presence of 1000 ng/mL antibody
# [10] = biological target: recombinant human IGF-1R (rhIGF-1R), immobilized on plates or polystyrene beads (human) (UniProt P08069); experiment: labeled antibody on rhIGF-1R-coated beads; competitor: unlabeled 1-2
# [11] = biological target: recombinant human IGF-1R (rhIGF-1R), immobilized on plates or polystyrene beads (human) (UniProt P08069); experiment: labeled antibody on rhIGF-1R-coated beads; competitor: unlabeled 1H7
# [12] = biological target: recombinant human IGF-1R (rhIGF-1R), immobilized on plates or polystyrene beads (human) (UniProt P08069); experiment: labeled antibody on rhIGF-1R-coated beads; competitor: unlabeled 2C8
# [13] = biological target: recombinant human IGF-1R (rhIGF-1R), immobilized on plates or polystyrene beads (human) (UniProt P08069); experiment: labeled antibody on rhIGF-1R-coated beads; competitor: unlabeled 3B7
# [14] = biological target: recombinant human IGF-1R (rhIGF-1R), immobilized on plates or polystyrene beads (human) (UniProt P08069); experiment: labeled antibody on rhIGF-1R-coated beads; competitor: unlabeled cR1
# [15] = biological target: recombinant human IGF-1R (rhIGF-1R), immobilized on plates or polystyrene beads (human) (UniProt P08069); experiment: labeled antibody on rhIGF-1R-coated beads; competitor: unlabeled hR1
# [16] = biological target: recombinant human IGF-1R (rhIGF-1R), immobilized on plates or polystyrene beads (human) (UniProt P08069); experiment: labeled antibody on rhIGF-1R-coated beads; competitor: unlabeled 17-69
# [17] = biological target: recombinant human IGF-1R (rhIGF-1R), immobilized on plates or polystyrene beads (human) (UniProt P08069); experiment: labeled antibody on rhIGF-1R-coated beads; competitor: unlabeled 24-31
# [18] = biological target: recombinant human IGF-1R (rhIGF-1R), immobilized on plates or polystyrene beads (human) (UniProt P08069); experiment: labeled antibody on rhIGF-1R-coated beads; competitor: unlabeled 24-57
# [19] = biological target: recombinant human IGF-1R (rhIGF-1R), immobilized on plates or polystyrene beads (human) (UniProt P08069); experiment: labeled antibody on rhIGF-1R-coated beads; competitor: unlabeled 24-60
# [20] = biological target: recombinant human IGF-1R (rhIGF-1R), immobilized on plates or polystyrene beads (human) (UniProt P08069); experiment: labeled antibody on rhIGF-1R-coated beads; competitor: unlabeled αIR-3
# [21] = biological target: cell lines MCF-7, DU-145 and ME-180 carrying both IGF-1R and EGP-1; experiment: flow cytometry (FACScan), MCF-7 cells; control
# [22] = biological target: cell lines MCF-7, DU-145 and ME-180 carrying both IGF-1R and EGP-1; experiment: flow cytometry (FACScan), MCF-7 cells; structural control
# [23] = biological target: T1, recombinant human insulin receptor (rhIR), immobilized (human, UniProt P06213-2 28-944, limits assumed); experiment: ELISA on immobilized receptor
# [24] = biological target: T2, recombinant human IGF-1R (rhIGF-1R), immobilized on plates or polystyrene beads (human, UniProt P08069 31-935); experiment: labeled antibody on rhIGF-1R-coated beads; competitor: unlabeled R1
# T2 construct: also called immobilized recombinant human IGF-1R; IGF-1R-coated beads
# [25] = biological target: T2, recombinant human IGF-1R (rhIGF-1R), …; experiment: labeled antibody on rhIGF-1R-coated beads; competitor: unlabeled 1-2
# [26] = biological target: T2, recombinant human IGF-1R (rhIGF-1R), …; experiment: labeled antibody on rhIGF-1R-coated beads; competitor: unlabeled 1H7
# [27] = biological target: T2, recombinant human IGF-1R (rhIGF-1R), …; experiment: labeled antibody on rhIGF-1R-coated beads; competitor: unlabeled 2C8
# [28] = biological target: T2, recombinant human IGF-1R (rhIGF-1R), …; experiment: labeled antibody on rhIGF-1R-coated beads; competitor: unlabeled 3B7
# [29] = biological target: T2, recombinant human IGF-1R (rhIGF-1R), …; experiment: labeled antibody on rhIGF-1R-coated beads; competitor: unlabeled cR1
# [30] = biological target: T2, recombinant human IGF-1R (rhIGF-1R), …; experiment: labeled antibody on rhIGF-1R-coated beads; competitor: unlabeled hR1
# [31] = biological target: T2, recombinant human IGF-1R (rhIGF-1R), …; experiment: labeled antibody on rhIGF-1R-coated beads; competitor: unlabeled 17-69
# [32] = biological target: T2, recombinant human IGF-1R (rhIGF-1R), …; experiment: labeled antibody on rhIGF-1R-coated beads; competitor: unlabeled 24-31
# [33] = biological target: T2, recombinant human IGF-1R (rhIGF-1R), …; experiment: labeled antibody on rhIGF-1R-coated beads; competitor: unlabeled 24-57
# [34] = biological target: T2, recombinant human IGF-1R (rhIGF-1R), …; experiment: labeled antibody on rhIGF-1R-coated beads; competitor: unlabeled 24-60
# [35] = biological target: T2, recombinant human IGF-1R (rhIGF-1R), …; experiment: labeled antibody on rhIGF-1R-coated beads; competitor: unlabeled αIR-3
# [36] = biological target: T2, recombinant human IGF-1R (rhIGF-1R), …; experiment: labeled antibody on rhIGF-1R-coated beads; competitor: unlabeled MAB391
# [37] = biological target: T2, recombinant human IGF-1R (rhIGF-1R), …; experiment: ELISA on immobilized rhIGF-1R (cR1 of clones 709.2D2 and 710.2G2, the same value for each)
# [38] = biological target: T1, recombinant human insulin receptor …; experiment: hybridoma screening; method not described
# Chain of EGP-1 expressed on cancer cell lines (MCF-7, DU-145, ME-180) (P09758 27-323): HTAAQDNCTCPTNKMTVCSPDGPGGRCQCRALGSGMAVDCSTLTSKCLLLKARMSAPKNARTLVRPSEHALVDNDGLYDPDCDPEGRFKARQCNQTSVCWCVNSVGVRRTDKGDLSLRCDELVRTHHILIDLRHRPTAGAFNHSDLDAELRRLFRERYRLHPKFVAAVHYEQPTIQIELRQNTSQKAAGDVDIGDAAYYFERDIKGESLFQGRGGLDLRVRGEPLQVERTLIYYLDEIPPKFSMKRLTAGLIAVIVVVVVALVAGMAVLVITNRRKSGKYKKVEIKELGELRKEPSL
# T1 sequence (P06213 other isoform, or with tags, fused parts or gaps limits assumed): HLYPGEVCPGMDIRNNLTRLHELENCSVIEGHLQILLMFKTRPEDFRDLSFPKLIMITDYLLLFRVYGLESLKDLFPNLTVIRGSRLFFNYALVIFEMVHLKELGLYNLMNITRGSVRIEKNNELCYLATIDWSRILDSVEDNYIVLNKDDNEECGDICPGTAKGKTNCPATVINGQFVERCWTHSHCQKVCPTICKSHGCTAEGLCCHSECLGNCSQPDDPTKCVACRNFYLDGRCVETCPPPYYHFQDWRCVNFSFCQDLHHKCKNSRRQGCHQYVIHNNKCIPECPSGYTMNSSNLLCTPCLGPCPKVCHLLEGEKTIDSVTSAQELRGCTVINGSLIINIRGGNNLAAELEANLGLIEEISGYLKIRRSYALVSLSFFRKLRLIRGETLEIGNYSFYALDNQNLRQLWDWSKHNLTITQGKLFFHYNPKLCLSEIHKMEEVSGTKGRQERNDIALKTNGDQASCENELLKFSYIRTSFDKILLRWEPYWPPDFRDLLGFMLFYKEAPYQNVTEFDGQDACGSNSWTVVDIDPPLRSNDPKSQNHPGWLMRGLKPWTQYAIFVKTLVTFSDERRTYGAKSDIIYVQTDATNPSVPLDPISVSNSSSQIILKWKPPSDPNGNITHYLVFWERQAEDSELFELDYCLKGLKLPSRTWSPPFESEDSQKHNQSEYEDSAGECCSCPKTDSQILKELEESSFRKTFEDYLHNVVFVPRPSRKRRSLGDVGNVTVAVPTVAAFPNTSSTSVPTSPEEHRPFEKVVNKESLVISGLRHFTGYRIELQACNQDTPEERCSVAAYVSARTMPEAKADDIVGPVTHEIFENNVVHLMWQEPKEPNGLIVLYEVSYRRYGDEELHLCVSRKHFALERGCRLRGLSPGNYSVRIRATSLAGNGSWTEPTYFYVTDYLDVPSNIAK
Molecule,% binding [5],% binding [7],% binding [24],% binding [25],% binding [26],% binding [27],% binding [28],% binding [29],% binding [30],% binding [31],% binding [32],% binding [33],% binding [34],% binding [35],% binding [36],further results
"Hex-hRS7, monospecific hexavalent DNL construct (hRS7 IgG-AD2 with hRS7 Fab-DDD2) (antibody)",,,,,,,,,,,,,,,,% Positive [1]: 93.7%; MFI [1]: 17; % Positive [2]: 99.9%; MFI [2]: 35.7; % Positive [3]: 100%; MFI [3]: 59.6
"MAB391, commercially available mouse anti-IGF-1R monoclonal antibody",40%,0%,,,,,,,,,,,,,,% binding of 125I-IGF-1 [4]: 100%; % binding of 125I-IGF-1 [6]: 95%; % binding of 125I-IGF-1 [8]: 54%; % binding of 125I-IGF-1 [9]: 38%
anti-IGF-1R antibody 24-60,0%,0%,,,,,,,,,,,,,,% binding [10]: 100%; % binding [11]: 100%; % binding [12]: 88%; % binding [13]: 79%; % binding [14]: 0%; % binding [15]: 0%; % binding [16]: 82%; % binding [17]: 18%; % binding [18]: 88%; % binding [19]: 0%; % binding [20]: 21%
human IgG (control in Table 5) (antibody),,,,,,,,,,,,,,,,% Positive [21]: 2.34%; MFI [21]: 1.84
anti-IGF-1R antibody αIR-3,86%,0%,,,,,,,,,,,,,,% binding [10]: 95%; % binding [11]: 115%; % binding [12]: 97%; % binding [13]: 76%; % binding [14]: 97%; % binding [15]: 107%; % binding [16]: 89%; % binding [17]: 52%; % binding [18]: 87%; % binding [19]: 0%; % binding [20]: 0%
DNL construct 22-20 (hLL2 IgG-AD2 with hA20 Fab-DDD2) (bispecific antibody),,,,,,,,,,,,,,,,% Positive [22]: 3.1%; MFI [22]: 2.11
"hRS7, humanized anti-EGP-1 antibody",,,,,,,,,,,,,,,,% Positive [1]: 82.8%; MFI [1]: 10.6; % Positive [2]: 99.2%; MFI [2]: 21.4; % Positive [3]: 100%; MFI [3]: 35.5
B1,,,0%,100%,125%,100%,106%,0%,0%,100%,100%,100%,40%,128%,108%,binding result [23]: no binding; Kd [37]: ~0.1 nM
B2,,,0%,100%,150%,100%,117%,0%,0%,100%,100%,100%,43%,143%,100%,binding result [38]: no binding
B3,,,0%,100%,131%,100%,100%,0%,0%,100%,100%,100%,71%,136%,121%,
